Laboratory results from patent publication US6461832B2, “Method of detecting procarboxypeptidase A and carboxypeptidase A levels in biological fluids” (priority 1997, dated 2002).
Values joined by “and” are separate entries in the source; they are usually repeats but may differ in a detail not shown here. Equal values may be shown once.

T1: carboxypeptidase A (CPA) (Homo sapiens, UniProt P15085)
T1 sequence (P15085 111-419): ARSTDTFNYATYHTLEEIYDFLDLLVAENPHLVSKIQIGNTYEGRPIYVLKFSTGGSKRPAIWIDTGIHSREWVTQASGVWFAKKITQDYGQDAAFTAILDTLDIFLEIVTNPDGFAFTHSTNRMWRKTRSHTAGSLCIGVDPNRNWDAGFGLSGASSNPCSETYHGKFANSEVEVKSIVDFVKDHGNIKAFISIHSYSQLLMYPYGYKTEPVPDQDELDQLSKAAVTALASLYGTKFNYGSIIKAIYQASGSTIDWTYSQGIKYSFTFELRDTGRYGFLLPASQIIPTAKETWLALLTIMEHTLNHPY

B1: clostripain: protease added to activate PCPA in the biological fluid (protein, UniProt P09870 51-181; P09870 191-526, looked up)
Clostripain light chain: NKNQKVTIMYYCDADNNLEGSLLNDIEEMKTGYKDSPNLNLIALVDRSPRYSSDEKVLGEDFSDTRLYKIEHNKANRLDGKNEFPEISTTSKYEANMGDPEVLKKFIDYCKSNYEADKYVLIMANHGGGAR
Clostripain heavy chain: AICWDDSNLDKNGEADCLYMGEISDHLTEKQSVDLLAFDACLMGTAEVAYQYRPGNGGFSADTLVASSPVVWGPGFKYDKIFDRIKAGGGTNNEDDLTLGGKEQNFDPATITNEQLGALFVEEQRDSTHANGRYDQHLSFYDLKKAESVKRAIDNLAVNLSNENKKSEIEKLRGSGIHTDLMHYFDEYSEGEWVEYPYFDVYDLCEKINKSENFSSKTKDLASNAMNKLNEMIVYSFGDPSNNFKEGKNGLSIFLPNGDKKYSTYYTSTKIPHWTMQSWYNSIDTVKYGLNPYGKLSWCKDGQDPEINKVGNWFELLDSWFDKTNDVTGGVNHYQW

How the values were obtained:
carboxypeptidase A (CPA) = biological target: T1, carboxypeptidase A (CPA); conditions: CPA specific inhibitor; reported values (Byers and Wolfenden 1973; Peterson et al. 1976); cited from earlier work
[1] = system: procarboxypeptidase A (PCPA) in human serum; assay: Activation of PCPA in human serum with clostripain, total CPA activity; format: biochemical; conditions: sera from four healthy individuals and one with pancreatitis
Experimental: In the present invention, the protease clostripain was added to activate any PCPA in the biological fluid so that total CPA could be measured.
Approximately 3 mg (500 units) of lyophilized clostripain was dissolved in 1 ml of 10 mM Tris buffer (pH 8.0) along with CaCl2 and Cleland's Reagent at final concentrations of 20 mM and 1 mM, respectively. This mixture was incubated at room temperature for approximately 2 hours. This solution was then added to serum in concentrations ranging from approximately 50 to 500 units of clostripain/ml of serum. One unit was defined as the amount of clostripain which could cleave one micromole of Nα-benzoyl arginine ethyl ester (BAEE) in one minute. Determination of PCPA levels in blood donor samples was performed with 250 units of clostripain per ml serum. The standard serum volume was 0.013 ml serum per ml total solution. This mixture was incubated for five minutes at 37° C., after which time Ellman's Reagent was added at the standard concentration to eliminate clostripain as it quickly derivatizes all sulfhydryl groups in the mixture. From this point, the standard assay as described in Example 2 was followed.

Molecule | Ki (carboxypeptidase A (CPA)) | CPA activities after activation, compared with trypsin [1] | CPA activity loss at supramaximal concentrations of activating protease ([1]; unlike trypsin)
O=C(O)CC(Cc1ccccc1)C(=O)O (racemic) [α-benzylsuccinic acid] | 1000 nM and 1600 nM | – | –
B1 | – | significantly higher than the maximum values that could be obtained when using trypsin | only slight CPA activity losses
